# Positions count from the first letter of the chain named. Names may count otherwise.
# T1: CD73 on MCF-7 cells (human, UniProt P21589 27-549)
# T1 sequence (looked up): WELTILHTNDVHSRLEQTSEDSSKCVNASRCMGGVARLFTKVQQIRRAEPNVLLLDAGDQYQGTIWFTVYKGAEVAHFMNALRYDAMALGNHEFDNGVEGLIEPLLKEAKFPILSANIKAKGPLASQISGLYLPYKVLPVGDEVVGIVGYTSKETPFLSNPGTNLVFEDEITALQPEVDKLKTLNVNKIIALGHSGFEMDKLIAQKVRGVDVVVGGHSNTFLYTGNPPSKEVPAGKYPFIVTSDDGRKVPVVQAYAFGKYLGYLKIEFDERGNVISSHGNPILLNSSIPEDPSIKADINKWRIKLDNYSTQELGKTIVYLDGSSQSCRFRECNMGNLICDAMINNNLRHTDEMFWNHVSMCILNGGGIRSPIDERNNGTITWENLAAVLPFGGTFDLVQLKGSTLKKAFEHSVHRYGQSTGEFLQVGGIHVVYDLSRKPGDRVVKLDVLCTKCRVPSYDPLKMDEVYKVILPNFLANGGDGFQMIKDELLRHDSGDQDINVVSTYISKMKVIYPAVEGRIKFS
# T2: B7H4 on T47D cells (human, UniProt Q7Z7D3 25-282)
# T2 sequence (looked up): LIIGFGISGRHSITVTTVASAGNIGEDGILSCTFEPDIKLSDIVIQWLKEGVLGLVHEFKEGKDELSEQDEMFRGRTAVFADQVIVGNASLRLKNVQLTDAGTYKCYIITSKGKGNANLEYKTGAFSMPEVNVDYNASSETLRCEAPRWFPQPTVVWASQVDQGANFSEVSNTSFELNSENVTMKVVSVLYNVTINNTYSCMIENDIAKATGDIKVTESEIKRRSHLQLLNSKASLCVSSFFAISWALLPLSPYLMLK
# B1: BAP147-WT (antibody, V domains shown)
# VH: EVQLLESGGGLVQPGGSLRLSCAASGFTFSSYAYSWVRQAPGKGLEWVSAISGSGGRTYYADSVKGRFTISRDNSKNTLYLQMNSLRAEDTAVYYCARLGYGRVDEWGRGTLVTVSS
# VL: QSVLTQPPSASGTPGQRVTISCSGSLSNIGRNPVNWYQQLPGTAPKLLIYLDNLRLSGVPDRFSGSKSGTSASLAISGLQSEDEADYYCATWDDSHPGWTFGGGTKLTVL
# B2: BAP147-LC-L051D (antibody, V domains shown)
# VH: B1 VH
# VL: B1 VL with L51D
# B3: BAP147-HC-Y101E (antibody, V domains shown)
# VH: B1 VH with Y101E
# VL: B1 VL
# B4: BA-091-00-2E2 (antibody, V domains shown)
# VH: QVQLQQSDAELVKPGASVKISCKVSGYTFTDRTIHWMKQRPEQGLEWIGSIYPRDGSTKYNEKFKDKATLTADKSSSTAYMQLNSLTSEDSAVYFCARSVGYAFDYWGQGTTLTVSS
# VL: DIVLTQSPASLAVSLGQRATISCRVSEGIDNYGFTFIHWYQQKPGQPPKLLIYRASNLQSGIPARFSGSGSRTDFTLTIYPVETDDVATYYCQQSDKDPFTFGSGTKLEIK
# B5: BA-091-02-04-04 (antibody, V domains shown)
# VH: EVQLVQSGAEVKKPGATVKISCKVSGYTFTDRTIHWIRQSPSRGLEWLGSIYPRDGSTKYNEKFKDRVTITADKSTSTAYMELSSLRSEDTAVYYCARSVGYADDYWGQGTLVTVSS
# VL: DVVMTQSPLSLPVTLGQPASISCRVSEGIDNYGFTFIHWYQQKPGKAPKLLIYRASNLQSGIPARFSGSGSGTEFTLTISSLQSEDFAVYYCQQSDKDPFTFGQGTKVEIK
# Columns and labels:
# [1] = biological target: T1, CD73 on MCF-7 cells; experiment: cell-based or functional assay
# [2] = biological target: T2, B7H4 on T47D cells; experiment: cell-based or functional assay
Binder,"EC50 (ng/mL), ADCC reporter bioassay, Palbociclib Isethionate-treated MCF-7 cells, pH6.0 [1] [ng/mL]","EC50 (ng/mL), ADCC reporter bioassay, Palbociclib Isethionate-treated MCF-7 cells, pH7.4 [1] [ng/mL]","EC50 (ng/mL), ADCC reporter bioassay, untreated MCF-7 cells, pH6.0 [1] [ng/mL]","EC50 (ng/mL), ADCC reporter bioassay, untreated MCF-7 cells, pH7.4 [1] [ng/mL]","pH7.4/pH6.0 ratio of ADCC EC50, Palbociclib Isethionate-treated MCF-7 cells [1] [ratio]","pH7.4/pH6.0 ratio of ADCC EC50, untreated MCF-7 cells [1] [ratio]","EC50 (ng/ml), ADCC reporter bioassay, Palbociclib Isethionate-treated T47D cells, pH 6.0 [2] [ng/ml]","EC50 (ng/ml), ADCC reporter bioassay, Palbociclib Isethionate-treated T47D cells, pH 7.4 [2] [ng/ml]","EC50 (ng/ml), ADCC reporter bioassay, untreated T47D cells, pH 6.0 [2] [ng/ml]","EC50 (ng/ml), ADCC reporter bioassay, untreated T47D cells, pH 7.4 [2] [ng/ml]","pH 7.4/pH 6.0 ratio of ADCC EC50, Palbociclib Isethionate-treated T47D cells [2] [ratio]","pH 7.4/pH 6.0 ratio of ADCC EC50, untreated T47D cells [2] [ratio]"
B1,1.26,1.16,2.17,1.07,0.92,0.49,,,,,,
B2,28.9,134,44.2,106,4.62,2.39,,,,,,
B3,55.9,545,173,100,9.74,0.577,,,,,,
B4,,,,,,,2.97,10.2,7.55,11.7,3.41,1.54
B5,,,,,,,27,149,98.1,429,5.53,4.37

# Reference: patent US20240044046A1 (BIOATLA, published 2024)
